Columns and labels:
[1] = target: T1, Shh in A549 cells (Homo sapiens, UniProt Q15465); test: Flow cytometry of purified antibodies on A549 cells (vector control or pCMV-Shh); format: binding
T1 construct: 1) 293T (endogenous Shh), 2) 293T (bearing exogenously transfected Shh) and 3) A549 (Shh-expressing); endogenous in cells; host or cells: 293T and A549 (endogenous); also 293T and A549 transiently transfected with pCMV-Shh (Origene)
Description: A549, 293T or 293T (+pCMV Shh) cells were labeled with Sonic Hedgehog (Shh) antibody (Abcam 53281, 1:100) or therapeutic test antibodies (1:100) for 1 hour at RT post serum blocking. Following two PBS washes, a FITC-conjugated secondary antibody (Abcam 97029, 1:100) or an Alexa-Fluor 647 (Invitrogen, 1:1000) was used to label cells. Samples were screened by flow cytometry using an Accuri™ C6 machine (BD Biosciences). For fluorescence activated cell sorting, samples were sorted using an S3e™ Cell Sorter (Bio-Rad) and the Shh+ population was collected. For all experiments, cells processed without primary antibody served as a negative control. Experiments were performed in duplicates or triplicates.
For the purpose of selecting the best C-term Shh antibodies from over 50 hybridoma clones, two sets of screening assays were designed. First, the same Shh C-term peptides (AA 247-264 and 448-462, KLH-free version) used to mount an immune response in mice was employed in an ELISA-based assay with supernatants from antibody-producing hybridoma clonal cells. […] To confirm specific recognition, A549 (+vector control) cells and A549 cells transfected with exogenous Shh were labeled with 2G4 and 2D9 and assessed via flow cytometry. […] Finally, the Kd values of both antibodies with recombinant full-length Shh were calculated and nanomolar binding affinities were observed (FIG. 48C).

[2] = system: other lung and pancreatic cancer cell lines; test: CellTiter-Glo cell viability assay, other cancer cell lines; format: cell-based; settings: 96 hours
Description: Logarithmically growing cells were plated in antibiotic-free medium supplemented with 2% fetal bovine serum at a density of 5,000 cells per well in clear-bottom 96-well plates. The next day cells were treated (triplicates) with increasing doses of in-house therapeutic antibodies (reconstituted in PBS) or PBS controls for 96 hours and subsequently assessed for cell viability by measuring ATP content with CellTiter-Glo Luminescent Cell Viability Assay (Promega). Signal intensity was measured on a Glomax™ 96 Microplate Luminometer (Promega) and percent cell survival was calculated based on the reading of PBS control cells set as 100%.

[3] = system: A549-derived NSCLC xenografts; test: Antitumor efficacy in NSCLC A549 xenograft model (8 mg/kg); format: in vivo, mice; settings: 3 times a week for 3 weeks, versus control IgG
Description: 7-week old female nude mice (Jackson Laboratories) were injected with 10×10^6 NSCLC A549 cells in 50% matrigel in the flank region. […] 8 mg/kg therapeutic or control antibodies were administered three times a week for approximately 3 weeks. Tumor volumes were calculated using the formula (V=L×W^2) with recorded caliper measurements. At the end point, tumors were harvested, weighed and imaged. All animal procedures were performed under IACUC-approved protocols and guidelines.

[4] = system: Shh protein; test: Ex vivo Shh staining of excised A549 xenograft tumors; format: in vivo, mice
Description: The in vivo effect of the C-terminal Shh antibodies were tested using the A549 cell subcutaneous xenograft tumor model in mice, as described in Example 1. After xenograft formation, animals were intra-tumor injected with a C terminal Shh antibody (2G4 or 2D9; each at 158 μg), or a control solution, 3 times a week for about 3 weeks (at 2-3 day intervals). Tumor volume was determined, as described in Example 1, every 2 days. Weight and size of the excised tumor were determined after the antibody treatment. A portion of the excised tumor was sectioned for immunohistochemical analysis of Shh protein expression, and RNA was extracted from another portion of the excised tumor for analysis of Gli1 expression.
Control IgG and Ab 1C11-2G4-treated A549 tumors harvested from mice were sectioned ([…]) and stained with a commercially available Sonic Hedgehog (Shh) antibody (Abcam 53281, 1:100) post acetone fixation, 0.2% Triton-X 100 permeabilization and serum blocking steps. A FITC-conjugated secondary antibody (1:1000) and […] DAPI (Vector Laboratories) mounting medium were used to stain sections prior to imaging at 20× magnification using a Zeiss Axiolmager 2 fluorescence microscope. Captured images were processed via ImageJ software (available at https://imagej.nih.gov/ij/download.html) and representative images are presented.
To assess the effects of antibody administration on hedgehog epitope occupancy, tumors were sectioned and stained with a commercial antibody specific for sonic hedgehog (Shh). […] Confirmatory results were observed when ground up permeabilized tumor cells were labeled with the commercially available Shh antibody and assessed using flow cytometry; 1C11-2G4-treated tumors (20%-Shh-labeled) contrasted with IgG controls (80%-Shh-labeled) (FIG. 46B).

[5] = system: A549 cells; test: Viability of A549 cells treated with Shh antibodies ± GLI inhibitor 249C; format: cell-based, human; settings: for Cell viability of A549 cells: 249C at 40 nM where added
Description: The effect of the C-terminal Shh antibodies from clones 2G4 and 2D9 on the viability of A549 cells was determined. A549 cells were exposed to increasing concentrations of the C-terminal Shh antibodies (2G4, 2D9), or antibodies against the N-terminal portion of Shh protein (6D3, 2E1), and the effective dose (ED50) was determined (assay 1: FIG. 16A; assay 2: FIG. 16B). […] Possibly due to the fact that very few cells express full-length Shh on the cell surface, the cytotoxic effect of the C-terminal Shh antibodies was not as potent as the cytotoxic effect of the N-terminal antibodies.
Next, the cytotoxicity of the C-terminal Shh antibodies was tested when the antibodies were used in conjunction with a small-molecule inhibitor of GLI zinc-finger transcription factor signaling, 249C (4-(5-chlorofuran-2-yl)-1,3-bis(2,4-difluorophenyl)-5-methyl-N-((4-methylmorpholin-2-yl)methyl)-4,5-dihydro-1H-pyrazole-5-carboxamide; Compound 135 above). A549 cells were exposed to varying concentrations of the C-terminal antibodies (2G4, 2D9) or the N-terminal antibodies (6D3, 2E1), in the presence or absence of a very low dose (40 nM) of 249C. (The IC50 of 249C in A549 cells is ˜70 nM.)

- endogenous Shh recognized (flow cytometry) ([1]; A549 (+vector control)): 0.5%
- exogenous Shh recognized (flow cytometry) ([1]; A549 cells transfected with exogenous Shh): 6%
B1: 2G4: purified mouse monoclonal C-terminal Shh antibody from hybridoma sub-clone 2G4 of clone 1C11, IgG1 kappa (antibody, V domains shown)
VH: EVKLVESGGGLVKPGGSLKLSCAASGFTFSSYTMSWVRQTPAKRLEWVATISSGGGNTYYPDSVKGRFTISRDNARNTLYLQMSSLRSEDTAMYYCARDYRSLFAYWGQGTLVTVSA
VL: QIVLTQSPAIMSASPGEKVTITCSASSSVSYMHWFQQKPGTSPKLWIYSTSNLASGVPARFSGSGSGTSYSLTISRMEAEDAATYYCQQRSSYPFTFGSGTKLEIK
- growth of other lung and pancreatic cancer cell lines [2]: inhibited the growth
- tumor volume [3]: significant reduction in tumor volume
- tumor weight of harvested tumors [3]: decrease in tumor weight
- cells expressing Shh protein in excised tumor (immunostaining) ([4]; intra-tumor antibody 158 μg, compared to control tumor samples): fewer cells expressing Shh protein
- number of Shh-labeled cells in permeabilized tumor sections (immunofluorescence) ([4]; tumors after 8 mg/kg treatment, versus IgG controls): significant reduction in the number of Shh-labeled cells
- Shh-labeled cells in ground up permeabilized tumor cells (flow cytometry, commercial Shh antibody) ([4]; tumors after 8 mg/kg treatment, IgG controls 80%): 20%
- Cell viability of A549 cells ([5]; Ab conc. 32 ng/mL): 99%
- Cell viability of A549 cells ([5]; Ab conc. 64 ng/mL): 95%
- Cell viability of A549 cells ([5]; Ab conc. 128 ng/mL): 91%
- synergy with a GLI inhibitor in reducing viability of non-small cell lung cancer cells ([5]; with 249C at 40 nM): act synergistically

Reference: patent US11479601B2, “Antibodies specific to Sonic Hedgehog and method of use thereof” (The Regents of the University of California, priority 2016, dated 2022)
